In the supplement of paper PMC11246515:
± gives the standard deviation of the averaged measurements.

Experiment: total protein half-life in vivo (active degradation + dilution); higher = more stable protein
[1] = E. coli NCM3722 delta-clpP delta-lon delta-hslV, growth: N-lim chemostat, doubling time 6 h
[2] = E. coli NCM3722 delta-clpP, growth: N-lim chemostat, doubling time 6 h
[3] = E. coli NCM3722 delta-hslV, growth: N-lim chemostat, doubling time 6 h
[4] = E. coli NCM3722 delta-lon, growth: N-lim chemostat, doubling time 6 h
[5] = E. coli NCM3722 delta-smpB, growth: N-lim chemostat, doubling time 6 h
[6] = wild type E. coli NCM3722, growth: C-lim chemostat, doubling time 3 h
[7] = wild type E. coli NCM3722, growth: C-lim chemostat, doubling time 6 h
[8] = wild type E. coli NCM3722, growth: C-lim chemostat, doubling time 12 h
[9] = wild type E. coli NCM3722, growth: N-lim chemostat, doubling time 6 h
[10] = wild type E. coli NCM3722, growth: N-lim chemostat, doubling time 12 h
[11] = wild type E. coli NCM3722, growth: P-lim chemostat, doubling time 6 h
[12] = wild type E. coli NCM3722, growth: P-lim chemostat, doubling time 12 h

Sequence | total protein half-life in vivo [1] | total protein half-life in vivo [2] | total protein half-life in vivo [3] | total protein half-life in vivo [4] | total protein half-life in vivo [5] | total protein half-life in vivo [6] | total protein half-life in vivo [7] | total protein half-life in vivo [8] | total protein half-life in vivo [9] | total protein half-life in vivo [10] | total protein half-life in vivo [11] | total protein half-life in vivo [12]
MKQYLELMQKVLDEGTQKNDRTGTGTLSIFGHQMRFNLQDGFPLVTTKRCHLRSIIHELLWFLQGDTNIAYLHENNVTIWDEWADENGDLGPVYGKQWRAWPTPDGRHIDQITTVLNQLKNDPDSRRIIVSAWNVGELDKMALAPCHAFFQFYVADGKLSCQLYQRSCDVFLGLPFNIASYALLVHMMAQQCDLEVGDFVWTGGDTHLYSNHMDQTHLQLSREPRPLPKLIIKRKPESIFDYRFEDFEIEGYDPHPGIKAPVAI [P0A884] | 4.71 ± 0.41 h | 4.939 ± 0.04 h | 4.26 ± 0.21 h | 4.54 ± 0.25 h | 4.48 ± 0.38 h | 3.23 ± 0.11 h | 5.59 ± 0.4 h | 10.3 ± 0.11 h | 4.62 ± 0.15 h | 7.94 ± 0.4 h | 5.65 ± 0.14 h | 10.4 ± 2.7 h
MKRAVVVFSGGQDSTTCLVQALQQYDEVHCVTFDYGQRHRAEIDVARELALKLGARAHKVLDVTLLNELAVSSLTRDSIPVPDYEPEADGIPNTFVPGRNILFLTLAAIYAYQVKAEAVITGVCETDFSGYPDCRDEFVKALNHAVSLGMAKDIRFETPLMWIDKAETWALADYYGKLDLVRNETLTCYNGFKGDGCGHCAACNLRANGLNHYLADKPTVMAAMKQKTGLR | 4.91 ± 0.072 h | 4.53 ± 0.16 h | 4.47 ± 0.14 h | 5.02 ± 0.59 h | 3.87 ± 0.57 h | 2.6 ± 0.17 h | 5.36 ± 0.46 h | 9.333 ± 0.044 h | 4.84 ± 0.59 h | 7.72 ± 0.73 h | – | 12.4 ± 1.3 h
MKREEIADLMAFVVVAEERSFTRAAARLSMAQSALSQIVRRIEERLGLRLLTRTTRSVVPTEAGEHLLSVLGPMLHDIDSAMASLSDLQNRPSGTIRITTVEHAAKTILLPAMRTFLKSHPEIDIQLTIDYGLTDVVSERFDAGVRLGGEMDKDMIAIRIGPDIPMAIVGSPDYFSRRSVPTSVSQLIDHQAINLYLPTSGTANRWRLIRGGREVRVRMEGQLLLNTIDLIIDAAIDGHGLAYLPYDQVERAIKEKKLIRVLDKFTPDLPGYHLYYPHRRHAGSAFSLFIDRLKYKGAV | 5.34 ± 0.45 h | – | > 8 h | 6.34 h | 6.01 ± 1.5 h | 2.929 ± 0.019 h | – | – | 5.238 ± 0.043 h | 11.7 h | 5.36 h | 9.19 ± 3.4 h
MKRHLNTCYRLVWNHMTGAFVVASELARARGKRGGVAVALSLAAVTSLPVLAADIVVHPGETVNGGTLANHDNQIVFGTTNGMTISTGLEYGPDNEANTGGQWVQDGGTANKTTVTSGGLQRVNPGGSVSDTVISAGGGQSLQGRAVNTTLNGGEQWMHEGAIATGTVINDKGWQVVKPGTVATDTVVNTGAEGGPDAENGDTGQFVRGDAVRTTINKNGRQIVRAEGTANTTVVYAGGDQTVHGHALDTTLNGGYQYVHNGGTASDTVVNSDGWQIVKNGGVAGNTTVNQKGRLQVDAGGTATNVTLKQGGALVTSTAATVTGINRLGAFSVVEGKADNVVLENGGRLDVLTGHTATNTRVDDGGTLDVRNGGTATTVSMGNGGVLLADSGAAVSGTRSDGKAFSIGGGQADALMLEKGSSFTLNAGDTATDTTVNGGLFTARGGTLAGTTTLNNGAILTLSGKTVNNDTLTIREGDALLQGGSLTGNGSVEKSGSGTLTVSNTTLTQKAVNLNEGTLTLNDSTVTTDVIAQRGTALKLTGSTVLNGAIDPTNVTLASGATWNIPDNATVQSVVDDLSHAGQIHFTSTRTGKFVPATLKVKNLNGQNGTISLRVRPDMAQNNADRLVIDGGRATGKTILNLVNAGNSASGLATSGKGIQVVEAINGATTEEGAFVQGNRLQAGAFNYSLNRDSDESWYLRSENAYRAEVPLYASMLTQAMDYDRIVAGSRSHQTGVNGENNSVRLSIQGGHLGHDNNGGIARGATPESSGSYGFVRLEGDLMRTEVAGMSVTAGVYGAAGHSSVDVKDDDGSRAGTVRDDAGSLGGYLNLVHTSSGLWADIVAQGTRHSMKASSDNNDFRARGWGWLGSLETGLPFSITDNLMLEPQLQYTWQGLSLDDGKDNAGYVKFGHGSAQHVRAGFRLGSHNDMTFGEGTSSRAPLRDSAKHSVSELPVNWWVQPSVIRTFSSRGDMRVGTSTAGSGMTFSPSQNGTSLDLQAGLEARVRENITLGVQAGYAHSVSGSSAEGYNGQATLNVTF | 5.867 ± 0.045 h | 6.13 ± 0.57 h | 4.9 ± 0.93 h | 5.37 ± 0.085 h | 5.53 ± 0.46 h | 3.05 ± 0.062 h | 4.43 ± 1.3 h | 4.46 ± 0.86 h | 5.92 ± 0.28 h | 9.16 ± 2 h | 5.77 ± 0.94 h | 11.9 ± 0.57 h
MKRIAFVFSTAPHGTAAGREGLDALLATSALTDDLAVFFIADGVFQLLPGQKPDAVLARDYIATFKLLGLYDIEQCWVCAASLRERGLDPQTPFVVEATPLEADALRRELANYDVILRF | 5 ± 0.57 h | 4.73 h | 4.7 ± 0.82 h | 5.18 ± 0.19 h | 4.61 ± 0.23 h | > 4 h | 6 ± 0.18 h | 11.2 ± 0.57 h | 4.83 ± 0.091 h | 7.67 ± 0.38 h | 5.89 ± 1.2 h | 13.9 ± 2.3 h
MKRINALTIAGTDPSGGAGIQADLKTFSALGAYGCSVITALVAQNTRGVQSVYRIEPDFVAAQLDSVFSDVRIDTTKIGMLAETDIVEAVAERLQRYQIQNVVLDTVMLAKSGDPLLSPSAVATLRSRLLPQVSLITPNLPEAAALLDAPHARTEQEMLEQGRSLLAMGCGAVLMKGGHLDDEQSPDWLFTREGEQRFTAPRIMTKNTHGTGCTLSAALAALRPRHTNWADTVQEAKSWLSSALAQADTLEVGHGIGPVHHFHAWW | 5.24 ± 0.81 h | 5.47 ± 0.26 h | 4.31 ± 0.15 h | 4.49 ± 0.18 h | 4.23 ± 0.093 h | 3.06 ± 0.055 h | 5.96 ± 0.11 h | 9.68 ± 4.2 h | 4.49 ± 0.61 h | 7.38 ± 0.17 h | 5.89 ± 0.12 h | 9.53 ± 1.9 h
MKRKRLFLLASLLPMFALAGNKWNTTLPGGNMQFQGVIIAETCRIEAGDKQMTVNMGQISSNRFHAVGEDSAPVPFVIHLRECSTVVSERVGVAFHGVADGKNPDVLSVGEGPGIATNIGVALFDDEGNLVPINRPPANWKRLYSGSTSLHFIAKYRATGRRVTGGIANAQAWFSLTYQ | – | – | – | – | 5.7 ± 0.54 h | 2.67 h | 6.06 h | – | – | – | – | –
